{"source": "patent US9371374", "assay_in_all_cases": "EIA, captured mAb", "key": {"[1]": {"biological_target": "biotinylated HCV core peptide 134-154 (Peptide 1) (HCV-1)"}, "[2]": {"biological_target": "biotinylated HCV core peptide 141-161 (Peptide 2) (HCV-1)"}, "[3]": {"biological_target": "biotinylated HCV core peptide 151-171 (Peptide 3) (HCV-1)"}}, "data": [{"binder": "HCV 208A-638 (antibody, V domains shown) VH: QGQLQQPGAEFVKPGASLKLSCRASGYTFTSYWIHWVKQRPGQGLEWIGEVDPSDSYINQNEKFRGKATLTVDKSSSTAYMQLGSLTSEDSAVYYCARHYYGVLDSWGQGTALTVSS VL: QIVLTQSPTIMSASLGERVTMTCTASSSVSSSYLHWFQQKPGSSPKLWIYSTSNLASGVPPRFSGSGSGTSYSLSISSVEAEDVATYYCLQFHRSPWTFGGGAKLEIKR", "values": [{"measurement": "Reactivity (OD492)", "setting": "[1]", "value": 0.07, "unit": "OD"}, {"measurement": "Reactivity (OD492)", "setting": "[2]", "value": 2.96, "unit": "OD"}, {"measurement": "Reactivity (OD492)", "setting": "[3]", "value": 0.09, "unit": "OD"}]}, {"binder": "HCV 208A-741 (antibody, V domains shown) VH: QLQQSGPVLVKPGASVMISCKTSGYTFTENAMHWVKQSHGKSLEWIGGVNPNNGDTIFNQKFKGKATLTVDKSSSTAFMELRSLTSEESTVYYCVRRELDFFDYWGQGTSVTVSS VL: DIVLTQSPASLAVSLGQRTTISCGASQSVSTSRFSYMHWYQQKPGQPPKLLIKYASNLESGVPARFSGSGSGTDFTLNIHPVAEEDTAAYYCQHSWEFPFTFGSGTKLEIKR", "values": [{"measurement": "Reactivity (OD492)", "setting": "[1]", "value": 1.2, "unit": "OD"}, {"measurement": "Reactivity (OD492)", "setting": "[2]", "value": 3.37, "unit": "OD"}, {"measurement": "Reactivity (OD492)", "setting": "[3]", "value": 0.06, "unit": "OD"}]}, {"binder": "HCV 208A-830 (antibody, V domains shown) VH: EVRLQQPGPEVEKPGASVKISCKTSGYTFTEYAIHWVKQSHGESLEWIGGINPSNGDPIYNQIFKDKATLTVDRSSNTAYMGLRSLTVGDSGVYFCVRRQLDYFDFWGQGASLTVSS VL: DIVLTQSPASLAVSLGQRATISCRSSQSVSTSRYSYLHWYQQKPGQPPKLLIKYASNLESGVPARFSGSGSGTDFTLNIHPVGEEDPATYYCQHSWEFPFTFGSGTKLEIKR", "values": [{"measurement": "Reactivity (OD492)", "setting": "[1]", "value": 0.07, "unit": "OD"}, {"measurement": "Reactivity (OD492)", "setting": "[2]", "value": 2.88, "unit": "OD"}, {"measurement": "Reactivity (OD492)", "setting": "[3]", "value": 0.08, "unit": "OD"}]}, {"binder": "HCV 208A-877 (antibody, V domains shown) VH: QLQQSGPELVKPGASVKISCKTSGYTFTENAMHWVKQSRGKSLEWIGGVNPNNGDTVYTQKFKGKATLTVAKSSSTAYMELRTMTCEESTVYYCASREPDFFDYWGQGSSVTVSS VL: QIVLTQSPAIMSVSPGEKVSMTCSASSSVTYMHWYQQKSGTSPKRWIYDTSELASGVPARFSGSGSGTTYSLTISSMEAEDAATYYCQQWSNKPLTFGAGTKLELKR", "values": [{"measurement": "Reactivity (OD492)", "setting": "[1]", "value": 0.06, "unit": "OD"}, {"measurement": "Reactivity (OD492)", "setting": "[2]", "value": 1.21, "unit": "OD"}, {"measurement": "Reactivity (OD492)", "setting": "[3]", "value": 0.05, "unit": "OD"}]}, {"binder": "HCV 208B-1024 (antibody, V domains shown) VH: EVQLVESGGDLVKPGGSLKLSCAASGFTFSNYGMSWVRQTPDKRLEWVATISSGGSYSYYPDSVKGRFTISRDNAKNILYLQMSSLKSEDTAMYYCASLYYGYGDYWGQGTAFTVSS VL: DVLMTQTPLSLPVSLGDQASISCRSSQSIVHSNGNTYLEWYLQKLGQSPKLLIYRVSNRFSGVPDRFSGSGSGTDFTLKISRVEAEDLGVYYCFQGSHVPWTFGGGTKLEIKR", "values": [{"measurement": "Reactivity (OD492)", "setting": "[1]", "value": 0.08, "unit": "OD"}, {"measurement": "Reactivity (OD492)", "setting": "[2]", "value": 0.75, "unit": "OD"}, {"measurement": "Reactivity (OD492)", "setting": "[3]", "value": 0.15, "unit": "OD"}]}, {"binder": "HCV 208B-1094 (antibody, V domains shown) VH: EVQLQQSGPELVKPGASVKISCKTSGYTFTEYAMHWMKQSHGKSLEWIGGINPTNGDTIYNQRFKDKAKLTVDRSSSTAYMELRSLTSDDSALFYCARRELDYFASWGQGTTLTVSS VL: DIVLTQSPASLIVSLGQTATISCRASQSLSTSRFSYVHWIQQKPGQPPKLLIKYASNLESGVPVRFSGSGSGTDFTLNIHPVEEEDTATYFCQHSWEFPFTFGSGTKLKIKR", "values": [{"measurement": "Reactivity (OD492)", "setting": "[1]", "value": 0.12, "unit": "OD"}, {"measurement": "Reactivity (OD492)", "setting": "[2]", "value": 3.28, "unit": "OD"}, {"measurement": "Reactivity (OD492)", "setting": "[3]", "value": 0.13, "unit": "OD"}]}, {"binder": "HCV 208B-1096 (antibody, V domains shown) VH: QVQLQQSGAGLAKPGASVKMSCKASGYTFTANKMHWAKQRPGQGLEWIGYIDPSSGYTEYNHKIQYKATLTADTSSSTAYMQLSTLTFEDSAVYYCTNFAYWGQGTLVTVSA VL: DIVMTQTPLTLSVTIGQPASISCKSSQSLLFTNGKTYLNWFLQRPGQSPKRLIYLLSKLDSGVPDRFSGSGSGTDFTLKISRVEAEDLGVYYCLQSTYFPLTFGAGTKLELKR", "values": [{"measurement": "Reactivity (OD492)", "setting": "[1]", "value": 0.34, "unit": "OD"}, {"measurement": "Reactivity (OD492)", "setting": "[2]", "value": 0.13, "unit": "OD"}, {"measurement": "Reactivity (OD492)", "setting": "[3]", "value": 3.56, "unit": "OD"}]}, {"binder": "HCV 208B-178 (antibody, V domains shown) VH: DVKLVESGGGLVKLGGSLKLSCAASGFTFSSYYMSWVRQTPEKRLELVAAINSNGGSTYYPDTVKGRFTISRDNAKNTLYLQMSSLKSEDTALYYCARHGGLGRRDWYFDVWGAGTTVTVSS VL: DIVLTQSPASLAVSLGQRATISCRASESVDNYGISFMHWYQQKPGQPPKLLIYRASNLESGIPARFSGSGSRTDFTLTINPVETDDVATYYCQQSNKDPFTFGSGAKLEIKR", "values": [{"measurement": "Reactivity (OD492)", "setting": "[1]", "value": 0.1, "unit": "OD"}, {"measurement": "Reactivity (OD492)", "setting": "[2]", "value": 0.07, "unit": "OD"}, {"measurement": "Reactivity (OD492)", "setting": "[3]", "value": 1.69, "unit": "OD"}]}, {"binder": "HCV 208B-189 (antibody, V domains shown) VH: QVHLQQSGAELAKPGASVQMSCKASGYTFTANKMHWARQRPRQGLEWIGYIDPASGYTEYNQKIKDRATLTADKSSSTAYMQLSSLTSEDSAVYYCTNFAYWGQGTLVTVST VL: not shown", "values": [{"measurement": "Reactivity (OD492)", "setting": "[1]", "value": 0.55, "unit": "OD"}, {"measurement": "Reactivity (OD492)", "setting": "[2]", "value": 0.15, "unit": "OD"}, {"measurement": "Reactivity (OD492)", "setting": "[3]", "value": 3.95, "unit": "OD"}]}, {"binder": "HCV 208B-251 (antibody, V domains shown) VH: QLQQSGPVLVKPGASVKISCKTSGYTFTENAMHWVKQSHGKSLEWIGGVNPNNGDTIYNQKFKGKATLTVDKSSSTAFMELRSLTSEESPVYFCVRRELDFFDYWGQGTSVTVSS VL: DIVLTQSPASLAVSLGKKATISCRASQSVSTSRYSYMHWYQQKPGHPPKLLIKYASNLESGVPARFSGSGSGTDFTLNIHPVAEEDTAAYYCQHSWEFPFTFGSGTKLEIKR", "values": [{"measurement": "Reactivity (OD492)", "setting": "[1]", "value": 0.11, "unit": "OD"}, {"measurement": "Reactivity (OD492)", "setting": "[2]", "value": 2.35, "unit": "OD"}, {"measurement": "Reactivity (OD492)", "setting": "[3]", "value": 0.41, "unit": "OD"}]}, {"binder": "HCV 208B-281 (antibody, V domains shown) VH: QGQLQQSGAELVKPGASVKLSCKTSGFTFSSSYISWLKQRPGQSLEWIAWIYAGTGGTNYNQKFTDKAQLTVDTSSSTAYMQFSSLTTEDSAIYYCAISGTGFIYWGQGTLVTVSA VL: DVLMTQTPLSLPVSLGDQASISCRSSQSLVHNNGNTYLEWFLQKPGQSPKLLIYKVSNRFSGVPDRFSGSGSGTDFTLKISRVEAEDLGVYYCFQGSHVPFTFGSGTKLEIKR", "values": [{"measurement": "Reactivity (OD492)", "setting": "[1]", "value": 1.48, "unit": "OD"}, {"measurement": "Reactivity (OD492)", "setting": "[2]", "value": 0.16, "unit": "OD"}, {"measurement": "Reactivity (OD492)", "setting": "[3]", "value": 0.12, "unit": "OD"}]}, {"binder": "HCV 208B-327 (antibody, V domains shown) VH: EVQLVESGGGLVKPGGSLKLSCAASGFTFSDSYMYWVRQTPDQRLEWVATISDGGSYTFYPDSVKGRFTISRDNAQNNLYLQMSSLKSEDTAMYYCASPHAGYFGWFAYWGRGTLVTVSA VL: DIVMTQAAFSNPVTPGTSVSISCRSSKSLLHSNGITYLYWYLQKPGQSPQLLIYQMSKIASGVPDRFRSSGSGTDFTLRISRVEAADVGVYYCAQNLELPWTFGGGTKLEIKR", "values": [{"measurement": "Reactivity (OD492)", "setting": "[1]", "value": 0.07, "unit": "OD"}, {"measurement": "Reactivity (OD492)", "setting": "[2]", "value": 0.05, "unit": "OD"}, {"measurement": "Reactivity (OD492)", "setting": "[3]", "value": 0.49, "unit": "OD"}]}, {"binder": "HCV 208B-395 (antibody, V domains shown) VH: QVQLQQSGAGLAKPGASVKMSCKASGYTFTANKMHWTKQRPGQGLEWIGYIDPSSGYTQYNHKIQDKATLTADTSSSTAYMQLSSLTFEDSAVYYCTNFAYWGQGTLVTVSA VL: DIVLTQSPATLSVTPGDRVSLSCRASQRIYNYLHWYQQKSHESPRLLIKYASQSISGIPSRFSGSGSGTDFILTINSVETEDFGMYFCQQSNSWPLTFGAGTKLELRR", "values": [{"measurement": "Reactivity (OD492)", "setting": "[1]", "value": 0.54, "unit": "OD"}, {"measurement": "Reactivity (OD492)", "setting": "[2]", "value": 0.13, "unit": "OD"}, {"measurement": "Reactivity (OD492)", "setting": "[3]", "value": 3.69, "unit": "OD"}]}, {"binder": "HCV 208B-408 (antibody, V domains shown) VH: EVKLVESGGGLVQPGGSLRLSCASSGFTFTDYYMSWVRQPPGKALEWLGFIRNKAYGYTTEFSASVNGRFTISRDDSQSVPYLQMNTLRAEDSATYYCARVLYYDYGGFAYWGQGTLVTVST VL: DIQMTQSPASLSASVGETVTITCRASGNIHTYLAWYQQKQGKSPQLLVYNANTLADGVPSRFSGSGSGTQFSLKINSLQPDDFGSYYCQHFWSAPWTFGGGTQLEIKR", "values": [{"measurement": "Reactivity (OD492)", "setting": "[1]", "value": 0.81, "unit": "OD"}, {"measurement": "Reactivity (OD492)", "setting": "[2]", "value": 0.2, "unit": "OD"}, {"measurement": "Reactivity (OD492)", "setting": "[3]", "value": 0.16, "unit": "OD"}]}]}
